Measured values from US7901879B2, “Lactoferrin in the treatment of malignant neoplasms and other hyperproliferative diseases” (Agennix Incorporated, priority 2002, dated 2011).

Tested on: IL-18
Experiment: IL-18 levels in small intestine and serum after oral rhLF or bLF (cytokine ELISA)
Assay type: in vivo, mice
Description: Recombinant human lactoferrin and bovine lactoferrin were orally administered to mice, and the production of IL-18 in the small intestine was measured.
Mice were treated for three days daily with 65 mg/kg/day of rhLF, 300 mg/kg/day of rhLF or 300 mg/kg/day of bLF. For a control, mice were only administered the pharmaceutical carrier. Twenty-four hours following administration of the LF or control for 3 days, animals were weighed and blood and serum were collected. Serum was used for cytokine ELISA assays.
Also, at these time points, animals were sacrificed and the small intestinal tissue was removed for further analysis. Small intestinal epithelium was homogenized using a lysis buffer consisting of PBS, 1% Nonidet P-40, 0.5% sodium deoxycholate, and 0.1% sodium dodecyl sulphate containing 10 μg/ml PhenylMetheylsulfonyl fluoride. Homogenate was centrifuged at 15,000 rpm for 10 minutes and the supernatant stored at −80 C. till it was tested for IL-18 levels.

[1] = oral 300 mg/kg/day for three days, 24 h after last dose
[2] = oral, rhLF at both doses, bLF 300 mg/kg/day

B1: bovine lactoferrin (protein, UniProt P24627 20-708, looked up)
Lactotransferrin: APRKNVRWCTISQPEWFKCRRWQWRMKKLGAPSITCVRRAFALECIRAIAEKKADAVTLDGGMVFEAGRDPYKLRPVAAEIYGTKESPQTHYYAVAVVKKGSNFQLDQLQGRKSCHTGLGRSAGWIIPMGILRPYLSWTESLEPLQGAVAKFFSASCVPCIDRQAYPNLCQLCKGEGENQCACSSREPYFGYSGAFKCLQDGAGDVAFVKETTVFENLPEKADRDQYELLCLNNSRAPVDAFKECHLAQVPSHAVVARSVDGKEDLIWKLLSKAQEKFGKNKSRSFQLFGSPPGQRDLLFKDSALGFLRIPSKVDSALYLGSRYLTTLKNLRETAEEVKARYTRVVWCAVGPEEQKKCQQWSQQSGQNVTCATASTTDDCIVLVLKGEADALNLDGGYIYTAGKCGLVPVLAENRKSSKHSSLDCVLRPTEGYLAVAVVKKANEGLTWNSLKDKKSCHTAVDRTAGWNIPMGLIVNQTGSCAFDEFFSQSCAPGADPKSRLCALCAGDDQGLDKCVPNSKEKYYGYTGAFRCLAEDVGDVAFVKNDTVWENTNGESTADWAKNLNREDFRLLCLDGTRKPVTEAQSCHLAVAPNHAVVSRSDRAAHVKQVLLHQQALFGKNGKNCPDKFCLFKSETKNLLFNDNTECLAKLGGRPTYEEYLGTEYVTAIANLKKCSTSPLLEACAFLTR
For B1, the “IL-18 Intestinal Extract % Increase Over Control” value (oral 300 mg/kg) was 373%, the “IL-18 Serum % Increase Over Control” value (oral 300 mg/kg) was −5% and the “IL-18 Intestinal Extract” value [1] was 4,515 pg. For the same molecule, the “IL-18 Serum” value [1] was 134 pg, the “effect on amount of IL-18 in the intestinal extract” value [2] was “lesser increase” and the “effect on amount of IL-18 in the serum” value [2] was “did not increase”.
